{"source": "the supplement of paper PMC10567573", "parents": {"B1": {"name": "PI4K2A (parent)", "chain": "FVKDPQGRIIAVFKPKNEEPYGHL"}, "B2": {"name": "ATL3 (parent)", "chain": "EKALASILLQDHIRDLDVVVVSVA"}}}
{"variants_of": "B1", "test": "protein stability index of a GFP-peptide fusion (GPS, HEK-293T) (PSI 1-6); higher = more stable", "details": "c terminus: a fixed tail appended"}
{"variant": "FVKDPQGRIIAVFKPKNEEPCGHL", "note": "[Y21C]", "protein stability index": 2}
{"variant": "FVKDPQGRIIAVFKPKNEEPPGHL", "note": "[Y21P]", "protein stability index": 2.17}
{"variant": "FVKDPQGRIIAVFKPKNEEPVGHL", "note": "[Y21V]", "protein stability index": 1.65}
{"variant": "FVKDPQGRLIAVFKPKNEEPYGHL", "note": "[I9L]", "protein stability index": 2.06}
{"variant": "FVKDPWGRIIAVFKPKNEEPYGHL", "note": "[Q6W]", "protein stability index": 1.7}
{"variant": "FVKDPQGRIIAVFKPKMEEPYGHL", "note": "[N17M]", "protein stability index": 1.9}
{"variant": "FVKDPQGRIIAVFKPKVEEPYGHL", "note": "[N17V]", "protein stability index": 1.66}
{"variant": "FVKDPQGRIIAVFKPKKEEPYGHL", "note": "[N17K]", "protein stability index": 1.73}
{"variant": "FVKDPQGRIIAVFKPKLEEPYGHL", "note": "[N17L]", "protein stability index": 2.35}
{"variant": "FVKDPQGRIRAVFKPKNEEPYGHL", "note": "[I10R]", "protein stability index": 2.85}
{"variant": "FVKDPQGRILAVFKPKNEEPYGHL", "note": "[I10L]", "protein stability index": 2.99}
{"variant": "FVKDPQGRIIAVFKPKNEEPYGHD", "note": "[L24D]", "protein stability index": 2.03}
{"variant": "FVKDPQGRIIAVFKPKNEEPYGHF", "note": "[L24F]", "protein stability index": 1.53}
{"variant": "FVKDPQGRIIAVFKPKNEEPYGHN", "note": "[L24N]", "protein stability index": 1.63}
{"variant": "FVKCPQGRIIAVFKPKNEEPYGHL", "note": "[D4C]", "protein stability index": 2.08}
{"variant": "PVKDPQGRIIAVFKPKNEEPYGHL", "note": "[F1P]", "protein stability index": 4.09}
{"variant": "KVKDPQGRIIAVFKPKNEEPYGHL", "note": "[F1K]", "protein stability index": 2.8}
{"variant": "NVKDPQGRIIAVFKPKNEEPYGHL", "note": "[F1N]", "protein stability index": 3.21}
{"variant": "FVKDPQGRIIAVFKPRNEEPYGHL", "note": "[K16R]", "protein stability index": 1.77}
{"variant": "FVKDPQGRIIAVFKPTNEEPYGHL", "note": "[K16T]", "protein stability index": 1.42}
{"variant": "FVKDPQGRIIAVFKPLNEEPYGHL", "note": "[K16L]", "protein stability index": 1.66}
{"variant": "FVKDPQARIIAVFKPKNEEPYGHL", "note": "[G7A]", "protein stability index": 2.29}
{"variant": "FVKDPQVRIIAVFKPKNEEPYGHL", "note": "[G7V]", "protein stability index": 1.73}
{"variant": "FVKDPQPRIIAVFKPKNEEPYGHL", "note": "[G7P]", "protein stability index": 1.81}
{"variant": "FVKDPQGRIIAVFKPKNEEPYGKL", "note": "[H23K]", "protein stability index": 1.61}
{"variant": "FVKDPQGRIIAVFKPKNEQPYGHL", "note": "[E19Q]", "protein stability index": 2.03}
{"variant": "FVKDPQGRIIAVFKPKNEEPYWHL", "note": "[G22W]", "protein stability index": 1.72}
{"variant": "FVKDPQGRIIAVFKPKNEEPYRHL", "note": "[G22R]", "protein stability index": 2.37}
{"variant": "FVKDPQGRIIAVFKPKNEEPYIHL", "note": "[G22I]", "protein stability index": 1.74}
{"variant": "FVKDPQGCIIAVFKPKNEEPYGHL", "note": "[R8C]", "protein stability index": 2.37}
{"variant": "FVKDPQGWIIAVFKPKNEEPYGHL", "note": "[R8W]", "protein stability index": 1.14}
{"variant": "FVKDPQGNIIAVFKPKNEEPYGHL", "note": "[R8N]", "protein stability index": 1.31}
{"variant": "FVKDPQGRIIAVFKPKNEEVYGHL", "note": "[P20V]", "protein stability index": 1.16}
{"variant": "FVKDPQGRIIAVFKPKNEEDYGHL", "note": "[P20D]", "protein stability index": 2.05}
{"variant": "FVKDPQGRIIAVFKPKNEESYGHL", "note": "[P20S]", "protein stability index": 2}
{"variant": "FVKDPQGRIIAVVKPKNEEPYGHL", "note": "[F13V]", "protein stability index": 1.92}
{"variant": "FVKDPQGRIIAVHKPKNEEPYGHL", "note": "[F13H]", "protein stability index": 2.24}
{"variant": "FVKDLQGRIIAVFKPKNEEPYGHL", "note": "[P5L]", "protein stability index": 1.39}
{"variant": "FVKDMQGRIIAVFKPKNEEPYGHL", "note": "[P5M]", "protein stability index": 1.3}
{"variant": "FIKDPQGRIIAVFKPKNEEPYGHL", "note": "[V2I]", "protein stability index": 2.01}
{"variant": "FTKDPQGRIIAVFKPKNEEPYGHL", "note": "[V2T]", "protein stability index": 1.94}
{"variant": "FVKDPQGRIIAFFKPKNEEPYGHL", "note": "[V12F]", "protein stability index": 2.84}
{"variant": "FVKDPQGRIIAGFKPKNEEPYGHL", "note": "[V12G]", "protein stability index": 2.44}
{"variant": "FVKDPQGRIIAIFKPKNEEPYGHL", "note": "[V12I]", "protein stability index": 1.85}
{"variant": "FVKDPQGRIILVFKPKNEEPYGHL", "note": "[A11L]", "protein stability index": 1.61}
{"variant": "FVKDPQGRIIRVFKPKNEEPYGHL", "note": "[A11R]", "protein stability index": 3.16}
{"variant": "FVKDPQGRIIPVFKPKNEEPYGHL", "note": "[A11P]", "protein stability index": 3.18}
{"variant": "FVKDPQGRIIVVFKPKNEEPYGHL", "note": "[A11V]", "protein stability index": 1.63}
{"variant": "FVKDPQGRIIAVFKPKNDEPYGHL", "note": "[E18D]", "protein stability index": 2.16}
{"variant": "FVKDPQGRIIAVFKPKNSEPYGHL", "note": "[E18S]", "protein stability index": 2.2}
{"variant": "FVWDPQGRIIAVFKPKNEEPYGHL", "note": "[K3W]", "protein stability index": 2.19}
{"variant": "FVYDPQGRIIAVFKPKNEEPYGHL", "note": "[K3Y]", "protein stability index": 2.01}
{"variant": "FVADPQGRIIAVFKPKNEEPYGHL", "note": "[K3A]", "protein stability index": 1.57}
{"variants_of": "B2", "test": "protein stability index of a GFP-peptide fusion (GPS, HEK-293T) (PSI 1-6); higher = more stable", "details": "c terminus: a fixed tail appended"}
{"variant": "EKALKSILLQDHIRDLDVVVVSVA", "note": "[A5K]", "protein stability index": 1.74}
{"variant": "EKALWSILLQDHIRDLDVVVVSVA", "note": "[A5W]", "protein stability index": 2.08}
{"variant": "EKALHSILLQDHIRDLDVVVVSVA", "note": "[A5H]", "protein stability index": 1.35}
{"variant": "EKALVSILLQDHIRDLDVVVVSVA", "note": "[A5V]", "protein stability index": 2.9}
{"variant": "EKALESILLQDHIRDLDVVVVSVA", "note": "[A5E]", "protein stability index": 2.29}
{"variant": "EKALTSILLQDHIRDLDVVVVSVA", "note": "[A5T]", "protein stability index": 2.26}
{"variant": "EKALQSILLQDHIRDLDVVVVSVA", "note": "[A5Q]", "protein stability index": 3.29}
{"variant": "EKALNSILLQDHIRDLDVVVVSVA", "note": "[A5N]", "protein stability index": 3.63}
{"variant": "EYALASILLQDHIRDLDVVVVSVA", "note": "[K2Y]", "protein stability index": 2.98}
{"variant": "EDALASILLQDHIRDLDVVVVSVA", "note": "[K2D]", "protein stability index": 2.78}
{"variant": "ERALASILLQDHIRDLDVVVVSVA", "note": "[K2R]", "protein stability index": 1.3}
{"variant": "EKYLASILLQDHIRDLDVVVVSVA", "note": "[A3Y]", "protein stability index": 1.09}
{"variant": "EKELASILLQDHIRDLDVVVVSVA", "note": "[A3E]", "protein stability index": 1.51}
{"variant": "EKALALILLQDHIRDLDVVVVSVA", "note": "[S6L]", "protein stability index": 3.06}
{"variant": "EKALAKILLQDHIRDLDVVVVSVA", "note": "[S6K]", "protein stability index": 2.18}
{"variant": "EKALAPILLQDHIRDLDVVVVSVA", "note": "[S6P]", "protein stability index": 1.93}
{"variant": "EKALASHLLQDHIRDLDVVVVSVA", "note": "[I7H]", "protein stability index": 2.31}
{"variant": "EKALASKLLQDHIRDLDVVVVSVA", "note": "[I7K]", "protein stability index": 2.32}
{"variant": "EKALASLLLQDHIRDLDVVVVSVA", "note": "[I7L]", "protein stability index": 1.97}
{"variant": "EKALASNLLQDHIRDLDVVVVSVA", "note": "[I7N]", "protein stability index": 1.31}
{"variant": "EKALASELLQDHIRDLDVVVVSVA", "note": "[I7E]", "protein stability index": 2.37}
{"variant": "EKALASDLLQDHIRDLDVVVVSVA", "note": "[I7D]", "protein stability index": 2.51}
{"variant": "EKALASALLQDHIRDLDVVVVSVA", "note": "[I7A]", "protein stability index": 2.62}
{"variant": "EKALASPLLQDHIRDLDVVVVSVA", "note": "[I7P]", "protein stability index": 3.2}
{"variant": "EKAHASILLQDHIRDLDVVVVSVA", "note": "[L4H]", "protein stability index": 1.05}
{"variant": "EKATASILLQDHIRDLDVVVVSVA", "note": "[L4T]", "protein stability index": 1.37}
{"variant": "EKAQASILLQDHIRDLDVVVVSVA", "note": "[L4Q]", "protein stability index": 1.69}
{"variant": "EKAAASILLQDHIRDLDVVVVSVA", "note": "[L4A]", "protein stability index": 1.45}
{"variant": "EKAPASILLQDHIRDLDVVVVSVA", "note": "[L4P]", "protein stability index": 1.25}
{"variant": "EKACASILLQDHIRDLDVVVVSVA", "note": "[L4C]", "protein stability index": 1.47}
{"variant": "EKADASILLQDHIRDLDVVVVSVA", "note": "[L4D]", "protein stability index": 2.61}
{"variant": "EKAVASILLQDHIRDLDVVVVSVA", "note": "[L4V]", "protein stability index": 3.38}
{"variant": "EKAEASILLQDHIRDLDVVVVSVA", "note": "[L4E]", "protein stability index": 1.39}
{"variant": "EKAKASILLQDHIRDLDVVVVSVA", "note": "[L4K]", "protein stability index": 3.04}
{"variant": "EKAYASILLQDHIRDLDVVVVSVA", "note": "[L4Y]", "protein stability index": 1.83}
{"variant": "IKALASILLQDHIRDLDVVVVSVA", "note": "[E1I]", "protein stability index": 2.5}
{"variant": "HKALASILLQDHIRDLDVVVVSVA", "note": "[E1H]", "protein stability index": 2.05}
{"variant": "RKALASILLQDHIRDLDVVVVSVA", "note": "[E1R]", "protein stability index": 2.24}
{"variant": "GKALASILLQDHIRDLDVVVVSVA", "note": "[E1G]", "protein stability index": 3.59}
{"variant": "NKALASILLQDHIRDLDVVVVSVA", "note": "[E1N]", "protein stability index": 2.93}
{"variant": "CKALASILLQDHIRDLDVVVVSVA", "note": "[E1C]", "protein stability index": 3.34}
